Results as given in publication PMC5614878.
pKd: −log10 of the molar value.

Experiments:
[1] = biological target: HIV-1 reverse transcriptase p66 p66 (Human immunodeficiency virus 1) (UniProt O93215); settings: cited from earlier work
[2] = biological target: p51 (polymerase domain of HIV-1 reverse transcriptase) (HIV-1) (UniProt P03366); test: NMR

Row | Substance | pKd [1] | percent dimeric [2] | stoichiometry N [2]
1 | HIV-1 reverse transcriptase p66 p66 (from UniProt O93215) | 5.40 |  | 
2 | p51 (polymerase domain of HIV-1 reverse transcriptase) (from UniProt P03366 600-1025) (domain or fragment) |  | 80% | 2
